Test results from the DeepSol protein solubility set.

assay: soluble on expression in E. coli; label from the status in PepcDB or PDB records

Row | Sequence | soluble on expression in E. coli
1 | MWKITENLYLAQLPMIVGPTSKQEFSKNDIKRVLTLTTEPISEKQKIGGVDYKFLHLLDMPDEPILDNAILETAVLYINEGVEKEENVGVHCLAAVSRSVSICAAYLMYKNQWPVEKALKMIESVRKTIGPNAGFLAQLKIWERSGMSFSADQYKNLKIDIPGITCVDSKTIWRQPVIDDQTKVRFKCRQCRKVIFNSDNIVHPLAEACQKYLIEPMAWLNVSGATCSVSHTCGAKLGTFIASGSKCNGCNKFVRQWIFINRTKLDKVEIAT | not soluble
2 | MWKRLCAGLSCRKFINQVTMTSVNKNRKSRDENEMAKYNEKELADTSKFLSFVLRHKPEAIGIVLDREGWADIDKLILCAQKAGKRLTRALLDTVVATSDKKRFSYSSDGRCIRAVQGHSTSQVAISFAEKTPPQFLYHGTASRFLDEIKKQGLIAGERHYVHLSADEATARKVGARHGSPVILTVKAQEMAKRGLPFWQAENGVWLTSTVAVEFLEW | soluble
3 | MWMKDPVARPLSPTRLQPALPPEAQSVPELEEVARVLAEIPRPLKRRGSMEQAPAVALPPTHKKQYQQIISRLFHRHGGPGPGGRSQSCPPSLRDLRPGQGPLLLPHQLPFHRPAPSQSSPPEQPQSMEMRSVLRKAGSPRKARRARLNPLVLLLDAALTGELEVVQQAVKEMNDPSQPNEEGITALHNAICGANYSIVDFLITAGANVNSPDSHGWTPLHCAASCNDTVICMALVQHGAAIFATTLSDGATAFEKCDPYREGYADCATYLADVEQSMGLMNSGAVYALWDYSAEFGDELSFREGESVTVLRRDGPEETDWWWAALHGQEGYVPRNYFGLFPRVKPQRSKV | soluble
4 | MWPDNRIARDAHYLYRYDRHGRLTEKTDLIPEGVIRTDDERTHRYHYDSQHRLVHYTRTQYAEPLVESRYLYDPLGRRVAKRVWRRERDLTGWMSLSRKPQVTWYGWDGDRLTTIQNDRTRIQTIYQPGSFTPLIRVETATGELAKTQRRSLADTLQQSGGEDGGSVVFPPVLVQMLDRLESEILADRVSEESRRWLASCGLTVEQMQNQMDPVYTPARKIHLYHCDHRGLPLALVSTEGATEWCAEYDEWGNLLNEENPHQLQQLIRLPGQQYDEESGLYYNRHRYYDPLQGRYITQDPIGLKGGWNFYQYPLNPVQYIDSMGLASKYGHLNNGGYGARPNKPPTPDPSKLPDIAKQLRLPYPIDQASSAPNVFKTFFRALSPYDYTLYCRKWVKPNLTCTPQDDSQYPGMDTKTASDYLPQTNWPTTQLPPGYTCAEPYLFPDINKPDGPATAGIDDLGEILAKMKQRTSRGIRKLEHHHHHH | not soluble
5 | MWPPCFWWRTSPACAWGCGWPSRGRGTGFWRRPPRRRPWPLLREAELVVLDWMLPDEPGVRLLDRMRQGPYESLPVLMLTARAGVRDRVEGLSRGADDYLVKPFAVEELLARLEALLRRAGKRKVLRRGPLLLDLERMEARLEGNPLPLTRREFALLAYLAERPGRVCTREELLEAVWGPDYLGTPRTVDQHVLQLREKLGEDPKAPRFLETVRGVGYRFREEA | soluble
6 | MWPPNAENNHCNYSYHEHAELNPHDHYHHHHYPHSSVHHTECYQTLSCPSDLPVETSYYNSVPPSYQDLGQTDLSPQFWCAEVDCVHERCSTKEIPHEQSKIFEEISKECDHIMNSAGDCEKCQVEHENGAQEAIPINDLVDIVMQTVDNLKKEGSSNDETKLLSRKRQQNKVAAARYRDKQKAKWQDLLDQLEAEEDRNQRLKLQAGHLEKEVAEMRQAFLAKLAKK | not soluble
7 | MWQCHLSAQDYRYYPVDGYSLLKRFPLHPLTGPRCPVQTVGQWLESIGLPQYENHLMANGFDNVQFMGSNVMEDQDLLEIGILNSGHRQRILQAIQLLPKMRPIGHDGYHPTSVAEWLDSIELGDYTKAFLINGYTSMDLLKKIWEVELINVLKINLIGHRKRILASLGDRLHDDPPQKPPRSITLRTGDWGEPSITLRPPNEATASTPVQYWQHHPEKLIFQSCDYKAFYLGSMLIKELRGTESTQDACAKMRANCQKSTEQMKKVPTIILSVSYKGVKFIDATNKNIIAEHEIRNISCAAQDPEDLSTFAYITKDLKSNHHYCHVFTAFDVNLAYEIILTLGQAFEVAYQLALQARKGGHSSTLPESFENKPSKPIPKPRVSIRKSVDLLHASHTGQEPSERHTEEALRKF | soluble
8 | MWRLRMSLGISEAFDLRPDYIISVIKDTRAKLVGFQFPEGLKRKGPELAKKVEKATGAEIIISGDPCFGACDLDRTLLDHVDILFHFGHAELEDIRLSNKVYFIETRSSVDVLHVIEKAVPELKGQKIGLITTVQHVHKLPDVCGVLERMGKTCVIGRGDSRIAYAGQVLGCNFSAARDEDCDEYLYIGSGDFHPLGVALSTKKRVLAADPFSGEVREVDPSRILRQRSAVIAKSLDAQVFGIIVSSKNGQKRMELASSLKELAKKHGKESHLILIDLVTPDQLLQFKVDAFVNTACPRLAIDEVGRFPAPMLTPQEFEIVLGEREWEKLVLDEITEEPVLEHHHHHH | not soluble
9 | MWRNSEERENRTSGRSQGSYQEIIGRTWIFRGAHRGRVNKKNIVWHELIGLKVRVVNSTHPGYVGIEGYVIDETRNMLVIAGENKVWKVPKDVCIFEFETWDGTKIKISGEKLVGRPEMRLKKRWRK | soluble
10 | MYDAIVVGGGFSGLKAARDLTNAGKKVLLLEGGERLGGRAYSRESRNVPGLRVEIGGAYLHRKHHPRLAAELDRYGIPTAAASEFTSFRHRLGPTAVDQAFPIPGSEAVAVEAATYTLLRDAHRIDLEKGLENQDLEDLDIPLNEYVDKLDLPPVSRQFLLAWAWNMLGQPADQASALWMLQLVAAHHYSILGVVLSLDEVFSNGSADLVDAMSQEIPEIRLQTVVTGIDQSGDVVNVTVKDGHAFQAHSVIVATPMNTWRRIVFTPALPERRRSVIEEGHGGQGLKILIHVRGAEAGIECVGDGIFPTLYDYCEVSESERLLVAFTDSGSFDPTDIGAVKDAVLYYLPEVEVLGIDYHDWIADPLFEGPWVAPRVGQFSRVHKELGEPAGRIHFVGSDVSLEFPGYIEGALETAECAVNAILHSHHHHHH | soluble
11 | MYDAYTPCEVALRLPVEVTCLAFQESNQTLLAGGRAGHLYAYTISANRRGFELTNICKSFHKKAVMELKVCQREDLLLCVSDGQLMAHKLSDPEYKVETLIHKVKPVQTFARFSPKTSGDLYVIVSSRKKLYLFKWGEKDGHKEFIEVALDYNPVFLDTPTSIRCVGEMVFFSVRNEYFSMTMQKDKTTTSPSEGSTPEGWNGFVTRLLNFNCQPGIVPMIDRRRVAFVRNEIVVTTDIWGQRPANVLSDEYKFSEVPMQIVYDSPYLVGMLSKGRVEVRSIFDGQLVQTMSLPKAMTLCSGARGQVFVAALSDIWILDTSQNLRKNVSHLIQERHFELAIQLAENSNLFAEEQKLEIKKKAALNLFNQKKFDESFALFGEIKTDISEVLSIIRMFPELLPDGFQSMTGVVSDMPANDRMRALLALGSYLSEIRTEHAKHIELYNRLYSSGAAKKTDEDEKAKLLLTLRVVDTTLLKCYIKTKPMLVDSLIRLQSNACTFEDAKKILESEGRLRSLFILYETRKKHEMALDLFIDQSSRPDADPFFDDAIQQIVEYLQSLGNSNLPLILKYAKWVLAKNLEAGVQIFTSDETEMARNLNRKAVVEFLKSECPDALIPYLEHVIFKWEEPSSYFHETLLEFYVARVNTLFKDYVHAFPDDENITRAGDEDGELGLYRKRLLKFLEVSHSYSPQTVLLQLAPHAFYEERALILGRLKQHEQALAIYVNTLKNVPAAEEYCRLYYNAHDETNSQVYLMLFRTLVHPNQQQLHSIPYHADSTPFGSYRDDVSEASTLVNSTSSYQPDVNTAIKILAKHADKIDTVGALNMLPATTPLRVVFSAINAVIQTTGRQASTRKMEKSVSQCAMSKKLERKNKAQSTKIIVNFSSECVVCEKKIAVSAFVRYPDGRLAHLYCHNDSQGGNRN | not soluble
12 | MYDVAIIGAGVIGCSIFRELTKYDLRVVVLEKEKDVSMGTSKANSAIVHAGYDPEEGTLMAKYNVKGNEMFEELCKELSVPFKRNGSLVLAFDKEDMFKVKHLYENGSKLGVKGLKILNRDEVLKMEPNLNDKIEGALYAPTGGIVGPFEYTIALAENGVTNGGKIKLKKEVVSIKKRDVFKIGTEDGETIEAKFVINAAGVYADKIHNLVCKESFKISPRSGEYFVMDKSQGNVVKHTIFQCPSKLGKGVLITPTVHGNLLVGPDARDVEDKEDVGTVFEGLDYVKEASMRSTKEVNFRESIRNFAGLRANPDTGDFIVEENDEVKGFIDVAGMKSPGLSSAPAIAVDVVNILSSAGCSLKK | not soluble
13 | MYEYLLLTRKNALFSLAINEPSPTFALTIIAIFSSTNVRSSVVRLGCFRVEICCTCHTQYLKLEIMVIISYLKYVNLPCSFIFISNSFALVFKISAEV | soluble
14 | MYGTEQIISGTIIAGPEILPIEGYICVKNGIITEIGEERTNSKNIIAPCFVNAHTHLGDSVCKDPVLGKTSGFRVQRDLDSLVKPPDGLKHRILRETPYKTLVGHIKRSLLDMIDTGTCAFADFREGGFLGVAALNKALEGLELRSLIFGRPAEPDLPLQVVLSEVRRILLRSDGLGMSGANDLDMNLLQEITACTRERKKLFAIHAGEKNRSDIEKALSLEPDLLIHLTHAGKKDLDEIAQAKIPVVVCPRSNFVTGAGMAPIAEMLEAGIRVAAGTDNVMLNSVNMFAEMEFMSKIFSIDDRQVFKICTLNGSFVMGPDSMCSIEKGNKANLMILNGDSNNLAGIQDPVGGITKRARPDDILAVLHS | not soluble
15 | MYKNILLGVDTQLKNEKALKEVSKLAGEGTVVTVLNAISEQDAQASIKAGVHLNKLTEERSKRLEKTRKALEDYGIDYDQIIVRGNAKEELLKHANSGKYEIVVLSNRKAEDKKKFVLGSVSHKVAKRATIPVLIVK | not soluble
16 | MYLPIFCIFLSVVDSLRILQIVPGFTNSHVLFNYRLAETLRFLGHDVKMWTQMEMAMLDTGNNKLPEGVSEYRIPIHFTDTLKTEGLKVFQSMMFESGDAHDLWWTGQEFKDMRVEACEQMLRHDESVYEDFRKDGFDVAIAHFHDLCPLAIAKKMNVKRVIWITHGTSIYEFSAVQLGLRTIPSTIPHPLSSAGFSQLFLDRVQNTLWHLSLLDFVNLPQNLLVDENLFYREFVGADQDDLWDLAKTTVPSLLINGDRMLDFPRPLPIHIAFSGELGVSKGKKLVMEKWLEDIIEKPSDGLIVFSLGTVSNTTNMPAQMINSFLGAFGKLKTYTILWRMEKSVAGAEKYENLHLVKWLPQKDIMRHPKMKLMIAHGGYNSFLEAAQAGIPAVLMPLFADQKINAKRAQRYGMATVLDKLDLTINNVYGAIKEALKPEYSTNAKKLSAMLSDQVARKPYSALRYSLKLATSPKPSLFTLKSQHLSFLEFHNLDIFSIVLLTAFIVCF | not soluble
17 | MYLSRITLHTSELSPAQLLHLVERGEYVMHQWLWDLFPGSKERQFLYRREELQGAFRFFVLSQEQPAASAIFDVQTRPFAPTLSAGQTLRFNLRANPTVCKNGKRHDLLMEAKRQRKTQGDSQDIWSYQQQAALTWLARQGEQNGFTLREASVDAYRQQQIRRGKDRQMIQFSSVDYTGVLVINEPALFLQRLAQGFGKSRAFGCGMMMIKPGDDA | not soluble
18 | MYNETPIKRRPSTRIYVGNVPIGDGAPIAVQSMTNTKTTDVEATVAQIRALEKVGADIVRVSVPTMDAAEAFKLIKQSVSVPLVADIHFDYRIALKVAEYGVDCLRINPGNIGNEERIRSVVECARDKNIPIRIGVNGGSLEKDLMDKYKEPTPEALLESAMRHVDILDRLNFDQFKVSVKASDVFLAVESYRLLAKQIRQPLHLGITEAGGARAGAVKSAVGLGMLLAEGIGDTLRISLAADPVEEIKVGFDILKSLRIRSRGINFIACPSCSRQEFDVISTVNELERRLEDVTTAMDVSIIGCVVNGPGEALVSHIGLTGGHRKSGYYDEGERQKERFDNDNLVDSLEAKIRAKASQMANRIQVKDTTEAAALEHHHHHH | not soluble
